# Test results published in the Immune Epitope Database (IEDB).
# Key:
# HLA-B*15:01 [1] = assay: IEDB peptide-MHC binding, purified MHC/competitive/fluorescence; ≥ and ≤ were set here for values at or beyond the usual limits of such assays; settings: source organism: Vaccinia virus Copenhagen
# HLA-A*11:01 [2] = assay: as above; settings: source organism: Vaccinia virus Copenhagen
# HLA-A*01:01 [3] = assay: as above
# HLA-A*03:01 [4] = assay: as above; settings: source organism: Vaccinia virus Copenhagen
# HLA-A*02:01 [5] = assay: as above; settings: source organism: Vaccinia virus Copenhagen
# HLA-A*68:01 = assay: IEDB peptide-MHC binding, purified MHC/competitive/radioactivity; filed as Kd, often an IC50 or EC50 that approximates it; ≥ and ≤ were set here for values at or beyond the usual limits of such assays; settings: source organism: Vaccinia virus WR
# HLA-A*31:01 [6] = assay: as above; settings: source organism: Vaccinia virus WR
# HLA-A*33:01 = assay: as above; settings: source organism: Vaccinia virus WR
# HLA-B*51:01 = assay: IEDB peptide-MHC binding, purified MHC/direct/fluorescence; filed as Kd, often an IC50 or EC50 that approximates it; ≥ and ≤ were set here for values at or beyond the usual limits of such assays; settings: source organism: Vibrio parahaemolyticus
# HLA-B*15:01 [7] = assay: as above
# HLA-C*14:02 = assay: as above; settings: source organism: Vibrio antiquarius
# HLA-B*07:02 [8] = assay: as above
# HLA-A*30:01 = assay: IEDB peptide-MHC binding, purified MHC/competitive/radioactivity; filed as Kd, often an IC50 or EC50 that approximates it; ≥ and ≤ were set here for values at or beyond the usual limits of such assays; settings: source organism: Vaccinia virus WR
# HLA-C*12:03 = assay: IEDB peptide-MHC binding, purified MHC/direct/fluorescence; filed as Kd, often an IC50 or EC50 that approximates it; ≥ and ≤ were set here for values at or beyond the usual limits of such assays; settings: source organism: Vaccinia virus Tian Tan
# HLA-B*08:03 = assay: as above; settings: source organism: Variola virus
# HLA-B*48:01 = assay: as above
# HLA-A*11:01 [9] = assay: as above
# HLA-A*31:01 [10] = assay: as above; settings: source organism: Camelpox virus CMS
# HLA-B*58:01 = assay: as above
# HLA-A*69:01 = assay: as above
# HLA-A*01:01 [11] = assay: as above
# HLA-B*08:01 = assay: as above; settings: source organism: Variola virus
# HLA-B*40:01 = assay: as above
# HLA-B*27:05 [12] = assay: as above; settings: source organism: Camelpox virus CMS
# HLA-A*03:01 [13] = assay: as above
# HLA-A*02:01 [14] = assay: as above; settings: source organism: Camelpox virus CMS
# HLA-B*15:17 = assay: IEDB peptide-MHC binding, purified MHC/competitive/fluorescence; filed as Kd, often an IC50 or EC50 that approximates it; ≥ and ≤ were set here for values at or beyond the usual limits of such assays
# HLA-B*35:01 = assay: as above; settings: source organism: Vaccinia virus Tian Tan
# HLA-B*15:01 [15] = assay: as above; settings: source organism: Vaccinia virus Tian Tan
# HLA-A*68:02 = assay: as above
# HLA-B*18:01 [16] = assay: as above; settings: source organism: Vaccinia virus Tian Tan
# HLA-A*26:03 = assay: as above
# HLA-A*26:01 [17] = assay: as above; settings: source organism: Vaccinia virus Tian Tan
# HLA-A*02:06 = assay: as above; settings: source organism: Vaccinia virus Tian Tan
# HLA-C*15:02 = assay: IEDB peptide-MHC binding, purified MHC/direct/fluorescence; filed as Kd, often an IC50 or EC50 that approximates it; ≥ and ≤ were set here for values at or beyond the usual limits of such assays
# HLA-B*46:01 [18] = assay: IEDB peptide-MHC binding, purified MHC/competitive/fluorescence; filed as Kd, often an IC50 or EC50 that approximates it; ≥ and ≤ were set here for values at or beyond the usual limits of such assays; settings: source organism: Bacillus anthracis str. A0488
# HLA-A*24:02 = assay: IEDB peptide-MHC binding, purified MHC/competitive/fluorescence; ≥ and ≤ were set here for values at or beyond the usual limits of such assays; settings: source organism: Vaccinia virus Copenhagen
# HLA-A*26:02 = assay: IEDB peptide-MHC binding, purified MHC/direct/fluorescence; filed as Kd, often an IC50 or EC50 that approximates it; ≥ and ≤ were set here for values at or beyond the usual limits of such assays; settings: source organism: Variola virus
# HLA-B*57:01 = assay: as above; settings: source organism: Camelpox virus M-96
# HLA-B*18:01 [19] = assay: as above; settings: source organism: Camelpox virus M-96
# HLA-B*46:01 [20] = assay: as above; settings: source organism: Camelpox virus M-96
# HLA-A*26:01 [21] = assay: as above; settings: source organism: Variola virus
# HLA-A*31:01 [22] = assay: IEDB peptide-MHC binding, purified MHC/competitive/fluorescence; filed as Kd, often an IC50 or EC50 that approximates it; ≥ and ≤ were set here for values at or beyond the usual limits of such assays; settings: source organism: Vaccinia virus Copenhagen
# HLA-B*27:05 [23] = assay: as above; settings: source organism: Vaccinia virus Copenhagen
# HLA-A*02:01 [24] = assay: as above; settings: source organism: Vaccinia virus Copenhagen
# HLA-B*07:02 [25] = assay: as above; settings: source organism: Influenza A virus (A/chicken/Scotland/1959(H5N1))
# [26] = source organism: Vaccinia virus Copenhagen
# [27] = source organism: Camelpox virus CMS
# [28] = source organism: Vaccinia virus Tian Tan
# [29] = source organism: Camelpox virus M-96
sequence,measurement,setting,value
KLNGAMVEY,IC50,HLA-B*15:01 [1],12.2 µM
same,IC50,HLA-A*11:01 [2],7.97 µM
same,IC50,HLA-A*01:01 [3]; [26],≥ 192 µM
same,IC50,HLA-A*03:01 [4],11.6 µM
same,IC50,HLA-A*02:01 [5],≥ 95.4 µM
same,Kd,HLA-A*68:01,0.00597 µM
same,Kd,HLA-A*31:01 [6],1.18 µM
same,Kd,HLA-A*33:01,1.96 µM
KVAQAAAAM,Kd,HLA-B*51:01,≥ 20 µM
same,Kd,HLA-B*15:01 [7]; source organism: Vibrio parahaemolyticus AQ3810,0.029 µM
same,Kd,HLA-C*14:02,0.072 µM
same,Kd,HLA-B*07:02 [8]; source organism: Vibrio parahaemolyticus,0.034 µM
KVFFGPIYY,Kd,HLA-A*30:01,0.154 µM
same,Kd,HLA-C*12:03,0.045 µM
same,Kd,HLA-B*08:03,≥ 20 µM
same,Kd,HLA-B*48:01; [27],≥ 20 µM
same,Kd,HLA-A*11:01 [9]; [27],0.022 µM
same,Kd,HLA-A*31:01 [10],1.29 µM
same,Kd,HLA-B*58:01; [27],0.021 µM
same,Kd,HLA-A*69:01; [27],≥ 20 µM
same,Kd,HLA-A*01:01 [11]; [27],≥ 20 µM
same,Kd,HLA-B*07:02 [8]; [27],≥ 20 µM
same,Kd,HLA-B*08:01,≥ 20 µM
same,Kd,HLA-B*40:01; [27],≥ 20 µM
same,Kd,HLA-B*27:05 [12],≥ 20 µM
same,Kd,HLA-A*03:01 [13]; [27],0.029 µM
same,Kd,HLA-A*02:01 [14],≥ 20 µM
same,Kd,HLA-B*15:17; [28],0.0216 µM
same,Kd,HLA-B*35:01,0.333 µM
same,Kd,HLA-B*15:01 [15],0.423 µM
same,Kd,HLA-A*68:02; [28],≥ 20 µM
same,Kd,HLA-B*18:01 [16],≥ 20 µM
same,Kd,HLA-A*26:03; [28],≥ 20 µM
same,Kd,HLA-A*26:01 [17],3 µM
same,Kd,HLA-A*02:06,1.8 µM
LMAFSTGPF,Kd,HLA-C*15:02; source organism: Bacillus anthracis str. A0488,≥ 20 µM
same,Kd,HLA-B*46:01 [18],2.76 µM
LQIPFAMQM,Kd,HLA-B*15:01 [7]; source organism: SARS-CoV1,0.18 µM
same,Kd,HLA-C*15:02; source organism: SARS-CoV1,0.11 µM
same,Kd,HLA-B*58:01; source organism: SARS-CoV1,0.986 µM
same,Kd,HLA-B*40:01; source organism: SARS-CoV1,4.04 µM
LYQLLEAVY,IC50,HLA-A*24:02,0.0687 µM
same,IC50,HLA-B*15:01 [1],≥ 71.9 µM
same,IC50,HLA-A*01:01 [3]; [26],≥ 199 µM
same,IC50,HLA-A*02:01 [5],≥ 72.8 µM
SLYKYLLLR,Kd,HLA-A*26:02,≥ 20 µM
same,Kd,HLA-B*15:01 [7]; [29],≥ 20 µM
same,Kd,HLA-B*08:03,≥ 20 µM
same,Kd,HLA-B*48:01; [29],≥ 20 µM
same,Kd,HLA-A*11:01 [9]; [29],0.047 µM
same,Kd,HLA-B*57:01,≥ 20 µM
same,Kd,HLA-B*18:01 [19],≥ 20 µM
same,Kd,HLA-B*58:01; [29],≥ 20 µM
same,Kd,HLA-B*46:01 [20],≥ 20 µM
same,Kd,HLA-A*69:01; [29],≥ 20 µM
same,Kd,HLA-A*26:01 [21],≥ 20 µM
same,Kd,HLA-A*01:01 [11]; [29],≥ 20 µM
same,Kd,HLA-B*07:02 [8]; [29],≥ 20 µM
same,Kd,HLA-B*08:01,≥ 20 µM
same,Kd,HLA-B*40:01; [29],≥ 20 µM
same,Kd,HLA-A*03:01 [13]; [29],0.031 µM
same,Kd,HLA-B*15:17; [26],≥ 20 µM
same,Kd,HLA-A*31:01 [22],0.00117 µM
same,Kd,HLA-A*68:02; [26],3.9 µM
same,Kd,HLA-A*26:03; [26],≥ 20 µM
same,Kd,HLA-B*27:05 [23],2.46 µM
same,Kd,HLA-A*02:01 [24],0.555 µM
SPYRTLMSCPI,Kd,HLA-B*07:02 [25],0.0036 µM
VVDPDDGSY,IC50,HLA-A*01:01 [3]; source organism: Zaire ebolavirus,44.1 µM
